Reference: PMC2916699 (Journal of molecular biology, 2009)
Where no end group is shown, it is not given here. The star is where a group is joined. Dansyl = CN(C)c1cccc2c(S(=O)(=O)*)cccc12

B1: dansyl-TKCTMS (peptide)
peptide: Dansyl-TKCTMS
B2: dansyl-TKCVVT (peptide)
peptide: Dansyl-TKCVVT
B3: dansyl-TKCSLM (peptide)
peptide: Dansyl-TKCSLM
B4: dansyl-TKCTLQ (peptide)
peptide: Dansyl-TKCTLQ
B5: dansyl-TKCNLQ (peptide)
peptide: Dansyl-TKCNLQ
B6: dansyl-TKCSLC (peptide)
peptide: Dansyl-TKCSLC
modifications: cysteine pairing not given here
B7: dansyl-TKCSIM (peptide)
peptide: Dansyl-TKCSIM
B8: dansyl-TKCGIM (peptide)
peptide: Dansyl-TKCGIM
B9: dansyl-TKCSLG (peptide)
peptide: Dansyl-TKCSLG
B10: dansyl-TKCNIM (peptide)
peptide: Dansyl-TKCNIM
B11: dansyl-TKCYVM (peptide)
peptide: Dansyl-TKCYVM
B12: dansyl-TKCSIS (peptide)
peptide: Dansyl-TKCSIS
B13: dansyl-TKCLVM (peptide)
peptide: Dansyl-TKCLVM
B14: dansyl-TKCRIS (peptide)
peptide: Dansyl-TKCRIS
B15: dansyl-TKCIVA (peptide)
peptide: Dansyl-TKCIVA
B16: dansyl-TKCAVQ (peptide)
peptide: Dansyl-TKCAVQ
B17: dansyl-TKCTKF (peptide)
peptide: Dansyl-TKCTKF
B18: dansyl-TKCITQ (peptide)
peptide: Dansyl-TKCITQ
B19: dansyl-TKCLTS (peptide)
peptide: Dansyl-TKCLTS

Biological target: protein farnesyltransferase (FTase), wild type (UniProt Q04631 1-377; Q02293 1-437)
Experiment: fluorescence polarisation

Row | Kd | Binder
1 | 6 ± 2 nM | B1
2 | 7 ± 3 nM | B2
3 | 8 ± 2 nM | B3
4 | 7 ± 1 nM | B4
5 | 8 ± 1 nM | B5
6 | 5 ± 2 nM | B6
7 | 6 ± 2 nM | B7
8 | 3.6 ± 0.7 nM | B8
9 | 3.4 ± 0.7 nM | B9
10 | 5 ± 1 nM | B10
11 | 12 ± 4 nM | B11
12 | 3.4 ± 0.8 nM | B12
13 | 6 ± 2 nM | B13
14 | 12 ± 2 nM | B14
15 | 5 ± 2 nM | B15
16 | 13 ± 3 nM | B16
17 | 6 ± 1 nM | B17
18 | 3.6 ± 0.8 nM | B18
19 | 5 ± 1 nM | B19
